In patent US20260167712A1, “INHIBITORY ANTIBODIES AGAINST GLUT1” (ICOSAGEN CELL FACTORY OÜ, priority 2022, published 2026):
Residue numbers refer to the chain shown, from its start. Entries after “also recorded” stand apart in the source; their conditions may differ.

T1: HEK-293-ALL cells transfected with human SLC2A1 (Homo sapiens, UniProt P11166)
T1 construct: expressed in transfected cells; host or cells: HEK-293-ALL
T1 sequence (P11166 1-492): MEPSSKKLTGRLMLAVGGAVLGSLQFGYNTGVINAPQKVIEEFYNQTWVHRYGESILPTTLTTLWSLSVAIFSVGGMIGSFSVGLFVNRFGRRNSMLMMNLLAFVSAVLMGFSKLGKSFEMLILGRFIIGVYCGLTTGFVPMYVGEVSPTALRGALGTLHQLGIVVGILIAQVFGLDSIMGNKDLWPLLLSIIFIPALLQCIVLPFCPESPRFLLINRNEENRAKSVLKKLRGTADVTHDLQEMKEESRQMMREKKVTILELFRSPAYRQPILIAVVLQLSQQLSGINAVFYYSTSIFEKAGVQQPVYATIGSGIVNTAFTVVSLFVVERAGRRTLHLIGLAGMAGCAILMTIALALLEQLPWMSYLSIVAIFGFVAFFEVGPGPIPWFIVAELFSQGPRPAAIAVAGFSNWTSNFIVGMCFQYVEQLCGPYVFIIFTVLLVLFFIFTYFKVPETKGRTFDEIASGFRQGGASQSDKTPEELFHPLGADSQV

T2: SLC2A1 pseudotyped VLPs (Homo sapiens, UniProt P11166)
T2 sequence (P11166 1-492): T1 sequence (P11166 1-492)

T3: SLC2A1 pseudotyped VLPs (UniProt P11166 1-492)
T3 chain: T1 sequence (P11166 1-492)

B1: 1G2 #9 (antibody, V domains shown)
VH: AVTLDESGGGLQTPGGALSLVCKASGFTFSTKGMGWVRQTPGKGLEWVAGISSMRRYTYYAPAVKGRATISRDNGQSTVRLQLSSLRAEDSGTYYCARDATYCSWTTSTCGWSGGTIDAWGHGTEVIVSS
VL: ALTQPSSVSANPGETVKITCSGSSGSYGWYQQKSPGSAPVTVIYWDDERPSGIPSRFSGSASGSTATLTITGVQAEDEAVYFCGSIDSSVGYVGIFGAGTTLTVL
B2: 5G5 #30 (antibody, V domains shown)
VH: AVTLDESGGGLQTPGGALSLVCKASGFTFSSHAIFWVRQAPDKGLEFVAAISSSSGSWTAYATVVKGRATISRDNGQSTVRLQLNNLRAEDTGTYYCAKAAGSACCYAGSIDAWGHGTEVIVSS
VL: ALTQPSSVSANPGETVKITCSGGSGSSYYGWYQQKSPGSAPVTVIYYDDKRPSDIPSRFSGSKSGSTATLTITGVQVEDEAVYYCGTGDGSIAIFGAGTTLTVL
B3: 7C3 #39 (antibody, V domains shown)
VH: B1 VH
VL: ALTQPSSVSANLGGTVKITCSGGGSSSYYGWYQQKSPGSAPVTVIYGNDRRPSDIPSRFSGSASGSTATLTITGVQAEDEAVYFCGSADSSDSGSGIFGAGTTLTVL
B4: 2A2 #12 (antibody, V domains shown)
VH: B1 VH with A24G, G35M, T40A, R55S, T78A, S91T, T107A
VL: ALTQPSSVSANPGETVKITCSGGYSYYGTYYYSWYQQKSPGSAPVTLIYRNDKRPSDIPSRFSGSGSGSTSTLTITGVQAEDEAVYFCGSYDSSDSGIFGAGTTLTVL

Legend:
[1] = biological target: T1, HEK-293-ALL cells transfected with human SLC2A1; experiment: 2-Deoxyglucose uptake assay (Glucose Uptake-Glo); type: cell-based; settings: 2-hour incubation, 0.35 nM to 6.89 μM, 1 mM 2DG for 20 min, FIG. 4
Protocol: To evaluate if the described anti-SLC2A1 antibodies inhibit glucose uptake, a commercial Glucose Uptake-Glo Assay kit (Promega) was utilized according to manufacturer's instructions. In short, HEK-293-ALL cells were transfected with human SLC2A1 expression plasmid and were incubated at 37° C. overnight in the presence of 5% CO2. Cells were washed with 0.5% BSA PBS twice and 7000 cells were plated per well into white clear bottom 96-well plates in 0.5% BSA PBS in the presence of 0.35 nM to 6.89 μM anti-SLC2A1 antibodies or glucose uptake inhibitor BAY-876 (CaymanChem). Cells were incubated for 2 hours at room temperature. Glucose uptake was initiated by the addition of 1 mM 2-deoxyglucose (2DG) and was allowed to proceed for 20 min at 37° C. in the presence of 5% CO2. After adding STOP and neutralization reagents included in the kit, luminescence was measured using GloMax Explorer microplate reader (Promega). Nonspecific luminescence was measured in lysates from cells without (2DG) being added. Data was normalized to nonspecific luminescence and to the average value of luminescence in the presence of no inhibitors.

MCF7 breast cancer cells = experiment: Cell proliferation inhibition assay (Incucyte), MCF7; type: cell-based; settings: for MCF7 cell growth (confluence), single agent: alone, Incucyte; for MCF7 cell growth in combination with phenformin: co-treatment with phenformin, FIGS. 7 and 9
Protocol: (§1) Incucyte S3 Live cell analysis instrument and Cell-by-Cell analysis software module (Sartorius) were used to evaluate the effect of anti-SLC2A1 antibodies on cancer cell proliferation label-free (FIGS. 5-11). MCF7, PC3 or PANC1 or MIAPACA2 cells were plated on flat bottom tissue culture 96-well plate in […] medium (Ximbio) supplemented with 2.5% FBS. Cells were incubated overnight and 0.02 nM to 13 μM anti-SLC2A1 antibodies, anti-HEL isotype control, PBS or BAY-876 were added to the cells alone or in combination with metformin (CaymanChem), phenformin (Sigma Aldrich) or IACS-010759 (CaymanChem). Cell confluence or object count was measured for 24 to 96 hours with Incucyte S3 and normalized to timepoint 0 h or 4h. anti-SLC2A1 antibodies inhibit cancer cell proliferation alone and especially in combination with complex-I inhibitors metformin, phenformin and IACS-010759. Exemplary antibodies 1G2 #9, 2A2 #12, 2E5 #22, 5G5 #30, 6F12 #33, 7C3 #39 and R14 #54 were used in proliferation assays.

[2] = test system: PC3 prostate cancer cell line; experiment: Cell proliferation inhibition assay (Incucyte), PC3; type: cell-based; settings: alone, FIG. 11
Protocol: as §1

[3] = test system: MIAPACA2 pancreatic cancer cell line; experiment: Cell proliferation inhibition assay (Incucyte), MIAPACA2; type: cell-based; settings: alone, FIG. 11
Protocol: as §1

SLC2A1 pseudotyped VLPs [4] = biological target: T2, SLC2A1 pseudotyped VLPs; experiment: ELISA-based SLC2A1 VLP binding assay; settings: 5 μg/mL VLP coating, FIG. 1
Protocol: An ELISA-based VLP binding assay was carried out to compare the EC50 values of antibody clones (FIG. 1). Similarly, ELISA based VLP binding assay was performed to compare the binding of the antibodies to different glucose transporters (FIG. 3). MaxiSorp™ high-capacity binding ELISA plate (Thermo Fisher Scientific, US) were coated with 5 μg/mL SLC2A1, SLC2A2, SLC2A3, SLC2A4 pseudotyped VLPs or MOCK VLPs in PBS overnight. The plate was washed and blocked for 1 h with 0.05% Tween 20, 2% BSA in PBS. Serial dilutions of antibodies were incubated on a washed plate for 1 hour, followed by a 1-hour incubation with goat anti-human IgG horse radish peroxidase (HRP) conjugated (Invitrogen) antibody. TMB (3,3′,5,5′-Tetramethylbenzidine) Solution VII (Biopanda Diagnostics) was used as a substrate for HRP and 0.5 M H2SO4 was used as stop solution. After every step, the wells were washed with 0.05% Tween 20, 0.1% Proclin 300 PBS solution. Absorption at 450 nm was measured with Thermo Scientific™ Multiskan™ FC Microplate Photometer. Exemplary wise used antibodies 1G2 #9, 2A2 #12, 2E5 #22, 5G5 #30, 6F12 #33, 7C3 #39 all bound SLC2A1 VLPs with low nanomolar EC50 values (FIG. 1).

SLC2A1 pseudotyped VLPs [5] = biological target: T3, SLC2A1 pseudotyped VLPs; experiment: ELISA

Molecule	MCF7 cell growth (confluence), single agent (MCF7 breast cancer cells)	EC50 of binding to SLC2A1 VLPs (SLC2A1 pseudotyped VLPs [4])	MCF7 cell growth in combination with phenformin (MCF7 breast cancer cells)	EC50 (SLC2A1 pseudotyped VLPs [5]) [nM]	further results
Cc1c(NC(=O)c2cc(C(N)=O)nc3cc(F)ccc23)c(C(F)(F)F)nn1Cc1ccc(C#N)cc1 [BAY-876, reference compound]	–	–	–	–	glucose (2-deoxyglucose) uptake [1]: strong concentration dependent decrease
Cc1nc(-c2nc(-c3ccc(OC(F)(F)F)cc3)no2)nn1Cc1cccc(N2CCC(S(C)(=O)=O)CC2)c1 [IACS-010759, reference compound]	did not influence cell growth	–	–	–	PC3 cell growth, single agent [2]: inhibited; MIAPACA2 cell growth, single agent [3]: inhibited
CN(C)C(=N)N=C(N)N [Metformin, metformin, reference compound]	did not influence cell growth	–	–	–	–
[H]/N=C(/N)N/C(=N/[H])NCCc1ccccc1 [phenformin, reference compound]	did not influence cell growth; also recorded: No growth inhibition	–	–	–	–
B1	–	low nanomolar	No growth inhibition	4.1	–
B2	–	low nanomolar	completely inhibit; also recorded: drastically inhibited; also recorded: most potent growth inhibitors	1.2	MCF7 cell growth in combination with IACS-010759 (MCF7 breast cancer cells; co-treatment with IACS-010759, FIG. 8): drastically inhibited; MCF7 cell growth in combination with metformin (MCF7 breast cancer cells; co-treatment with metformin, FIG. 6): drastically inhibited
B3	–	low nanomolar	completely inhibit; also recorded: most potent growth inhibitors	1.4	–
B4	–	low nanomolar	No growth inhibition	2.9	–
